In assay [1] the target is mCAT-1, murine cationic amino acid transporter (ecotropic receptor) (mouse (endogenous in C17.2 NSCs and NIH 3T3 fibroblasts; Mus dunni fibroblasts in the infectious center assay)) (UniProt Q09143).
The target is the same in assay [2]. The source holds these as a separate data set.
For assay [3] the target is unchanged. The source holds these as a separate data set.

Sequence of UniProt Q09143 (Q09143 whole entry): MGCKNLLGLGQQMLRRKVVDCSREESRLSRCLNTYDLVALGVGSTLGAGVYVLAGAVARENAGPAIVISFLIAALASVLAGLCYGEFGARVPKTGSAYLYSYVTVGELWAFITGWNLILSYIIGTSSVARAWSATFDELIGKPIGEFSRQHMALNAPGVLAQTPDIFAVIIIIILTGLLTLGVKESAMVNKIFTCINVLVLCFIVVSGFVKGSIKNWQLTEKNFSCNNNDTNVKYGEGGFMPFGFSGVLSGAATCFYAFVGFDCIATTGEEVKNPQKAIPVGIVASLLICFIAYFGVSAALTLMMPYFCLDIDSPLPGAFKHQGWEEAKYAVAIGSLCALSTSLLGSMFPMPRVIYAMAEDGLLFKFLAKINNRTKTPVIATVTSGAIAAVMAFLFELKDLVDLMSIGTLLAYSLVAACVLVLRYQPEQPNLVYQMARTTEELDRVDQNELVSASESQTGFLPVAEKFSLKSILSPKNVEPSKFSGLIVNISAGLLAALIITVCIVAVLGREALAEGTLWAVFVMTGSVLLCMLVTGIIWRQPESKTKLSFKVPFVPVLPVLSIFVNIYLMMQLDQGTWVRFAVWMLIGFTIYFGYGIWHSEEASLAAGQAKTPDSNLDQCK

In assay [1], “CasBrE SU (surface subunit of the CasBrE Env, made from the CasES vector without the TM subunit) (domain or fragment)” showed an infectious center assay: CasES+4070A-NSCs on DunniAm; infectious center efficiency (foci per 100 NSCs divided by plating efficiency) of 109% and an infectious center assay: CasES+4070A-NSCs seeded on 4070A-infected dunni fibroblasts (DunniAm); vector-positive foci per 100 NSCs seeded (foci per 100 NSCs seeded) of 18. In assay [2], the superinfection interference: reduction of the titre of the ecotropic virus Fr57E on CasES-NSCs (without 4070A) against control NSCs turned out to be 1 log and the superinfection interference: reduction of the titre of the ecotropic virus Fr57E on CasES-NSCs infected with 4070A came out at 5 logs. The substance also displayed a virus titration: vector titre of CasES+4070A-NSC supernatant on 4070A-infected 3T3 cells (3T3Am, amphotropic receptor blocked) against naive 3T3 cells (orders of magnitude) in assay [3] of over 3.

The values are drawn from publication PMC2998453.
